In a protein production outcome set (Wang et al. 2014) one finds protein production data, which are given here for 18 sequences.

A short description of this data set: label from the status in PepcDB records.
With “MRREKTMDTLIRSIMIKSKRKMDAKVAQFGLTTQQARVLGFLNDNAANEIIQKDLQRIFQTRGASITSLIQGLEKKQLISRKPSIRDGREKVVTLTEEGKRIVDEFNESFPREDDKAKKILSADEYKIFIDLLSKIDDNTELEHHHHHH”, the protein production entry is on record as “not failed”.

For the sequence “MRREKTMDTLIRSIMIKSKRKMDAKVAQFGLTTQQARVLGFLNDNAANEIIQKDLQRIFQTRGASITSLIQGLEKKQLISRKPSLRDGREKVVTLTKEGKDIVDEFNASFPREDDKAKKILSADEYKTFIELLSKIDDQTD”, the protein production entry was “failed”. In the case of “MRRFGKWLGRVLLAALCAALVIGLWKGEEIKRLMAVNSLFEPDLIVRNFSNMDAAFLHTPVGEAQTPPSALPDGPKMTLPDGTAAWLAARKVTSLVVLSNGQLVHESYHLGTKAEDRRISWSLAKSYISALTGIVLAQGSIASLDDPVTRYAPRLKGGAYDGATVRNVLNMATGVTFDEDYTDYDSDINRMGRVLALGGLMDDFAAGLTQTFARPGSEWQYVSIDTHVLGMVIRAATGRSVVDLMGAHIITPLGLESTPYYLTDGAGVAFALGGLNMTTRDYARFGQMMAQHGAWNGRQIVPKNWVIDSTTASAPTGPDEYGYGYQWWMPRDARPREYMGRGIYGQYLYINEEQGVVVALTAADAAFRDADVQQQNIALFREIADRVQGDANGKR”, the protein production result was “failed”. Turning to “MRRFLLSAAKILVSAALLYLALRKTDFAALAARIDATSFGWLAAAVAATIFQLFVNAVRWRAIGACCEAPLTTGRSMRYAMIGSFFNQTLPSAIGGDAVRVWLLARAGAGWRAATYSVFVDRATGLIALSAIIFVTLPWTLRLIDNADGRLGLMLLDFAALGAGVVFLTLPFLRFGLLDRIWATRHMRGCSEVALKALSSPKSAVILIATSLIIPILAVVIAWCVARAIESPSSFVQLFELVPPIMLITMIPISIAGWGVREASMGLAFGYAGLNPSDGVAVSLLFGAVYFVVGGIGGLIWIMSAEKAAKGDAPIEVPE”, the protein production result is recorded as “failed”. The result for “MRRLLVALCLLTVVLGSTSALAQARNQLGPLCTTETTPADKMVDACTKIIALKVFKGEQLATVYFWRAVGWNKKGDYAKVITDATEAIRLQPSQAVYNLRGSAYYDKGDYDIAIADFDDALKLGPPSGIIFHNRGNAWRGKHDYTKAIADYDMSIKADPKSAFSFQNRGISKEALGDLDGALADINQAIRLDPTLPQPLINRTSIWRAKGDLDRAIADGSEAIRLAEKKPPANIMTPPNSVLISGYTHRALAYEAKGDYARARDDYKATLAIVASDAGSKANQATAKVRLSLVSDAAVPIPRDAPSPTTQPTAAPAPQQTGAASAPSPAPAVRGTRMALIIGNGAYAHVKALPNPPNDARAVAKSLRDIGFTVSEGVDLDRAAMQKMTRDFLRDAARAQVAVVYYAGHGVQVDGRNYLIPVDVELKPGTAMTEAMIDMDTIMAGLDDQVRTNILIFDACRNNPMAQQVASAAANRGIEGASGLAAPTSLGAGATLGAGTLIAFATAPGQVALDGDGANSPFSAALSRHIGTLGLEVQQMLTRVRAEVVSTTKNKQVPWSNSSLLGEVYLAEK” reads “failed”.

For “MRRPAVTAGPAHVLQRPVKPDLSAILHCVQNCTGCRTVRQARPQRGDQIRVTFLCILSSVFPNDQTDHLRSVRPSGFRYRPRHLNSGLAPLPGTLLEEVSMRNPVLTVTPLALTLILSAAGAQSLQAAQSLYDQGKWQEAATAAAALKTSDGYALAAEATTNGAGLVADSQKKALFAKAQDYAKQAIAADKNNPEAYFELARAQGRLAQFSGILQSLGMAKDMKQNLDTAIKLKPNMASAYVALGLWNANLDSKGAIARSATGASKAQVVPNFEKAIALEANTPIHRVEYANALLLQGNKAGARAQLEKAAGMGADNFWEKRDVATAQAMLAKLK”, the protein production entry is “failed”. Consider “MRRQPSLTLRSTLAFALVAMLTVSGAGLYLYQSIEQTVLQRSDHAVLARLDHFRKLLRYDLTMDNLKGSPQLFENMLDSEEDIFIIGEPGKPPVVSVNPQHAPLPDLPTVAQDQPLRVDDLRSGMSLQGVPLRAAAAQVMSNGVEVRLQAAHLMVKEMAMLASFRQSIYIAVALAFLITAVLGYVLLRRGLRPLRKMAAHAAAITPASLHKRLDSHDTPVELQQLSNAFNAMLDRIDDGYRRLMQFSADLAHEIRTPVGSLMGHCQVALRQDRSVDEYQALLASNLEELERISRLVESILFLARADEAQAALERQPLDLHDELQRVAGYFEGLADERNLKLSPSGRGTLLADPILLRRALSNLVANAIRYADEDSEILIRVVTVDQQWRIEVENQGPVLPHATLARLFDRFYRGDASRHERSDSNGLGLAIVTAIMHLHGGCVEVAQPAVGRICFSLVFPAA”, for which the protein production entry was “failed”.

In the case of “MRRRKYPWKQADILIHRYCRRLTTGQRLAVIAVAFALFMAGCLYMLLSSLLGFGETGGGLQIEHIRPLDIKPEKDTTIHFKDYYDYGHSENQDTVRLVC”, the protein production result is “failed”.

With “MRRRVAYARDYGDHIMGKFKFPTAYTILFVLIALVAAMTWIVPAGKYQMVTNAALGKEVPVAGTYAPVEAQPQGITAVLLAPIDGLYNHQTYTAGAIDVALFVLIIGGFLGVVNKTGAIDAGIERVTTRLNGREEWMIPILMALFAAGGTIYGMAEESLPFYTLLVPVMMAARFDPLVAAATVLLGSGIGTLGSTINPFATVIAANAAGIPFTQGILLRVILLLVGYVICVYWVMRYARKVRNSPESSIVADKMAENQAHFLGNRSETMLEFTPTRKAILILFAASFAFMIYGVAVLGWWMAEISAVFLAAAVIVGVIARMGEETFTSTFIDGARDLLGVALIIGIARGIVVVMDNGMITHTILHSAENLVSGLSTTVFINVTYWLEVLLSFLVPSSSGLAVLTMPIMAPLADFAHVQRDLVVTAYQSASGVVNLITPTSAVVMGGLAIARVPWVRYLRWVAPLLLILTMLNMIVLSIAAMI”, the protein production entry is “failed”.

Turning to “MRRSDLHGTSIEIERKNVGERRYITGFDGLRVMALLGVIFYHLMPFTVPGGYLGVPIFFAVSGYLITDIFIQEWDRTGKIKLGSFYIRRLRRLYPTLVMVLVTSTAYMTLFAQNLLSHIRNIIWTNLVFVYNWWLVNNGQSYFDRYNGESPFTHLWYLSVLAQYYFIWPLILIVLLKIFGERRVQASGILFSLSIISSMLMTILYHPDTVNRVYYGSDTRVAPFLIGAALAFIWPSTRLKKALNARTNLIANILGGILILVMGITFFTMPGTTATPYYGGIFIFSILAVLMIAIIAHPSFMWNRLLTNPVFKWLGSRSYGIYMYQLPVMIFYEQKVTNIAAHPVLNTLAPLVIILVISELSYRYIEIPLAKFDYRQTFALLKKIFDLKSNLQWRRYLAIPAVLVVLIALFGAVTSPEKVVQKTDGLQTKLAKNSKEADKKNKEALEKQKETSAAKTKQKKAKLTKQEKEIAKKYQLTDQEMKFAAVTPLTGVGDSVLEDTGADLQEIFPTAYMSSKVGRQVDEAPGIIAELKRQKTLSDNVLINLGANGPISDKDVKAVEDAVGSKRHIFWVNVHVPTKTWEGSVNKTLDKATKQYKNLTVIDWFTPSKNQPGWFYGDYVHPNPDGSKQYATIVAKKIIKTLNK”, the protein production result is recorded as “failed”.

As for “MRRVVIRTEALSCPLDGDEDSNELRLRPLVPDAQEWKYPKSKLFPRHAAWSCHSGGGGGGGGGRVFTNKVNAVEEFNLGGLKDSESDSDSE”, the protein production entry is listed as “failed”. In the case of “MRSETVSTHTKPVRPEPPAPAAEVPAGAFPPGQERDHDTRPSAPPRDQSPPPAPEADSRSAARPAPPTHPGTSSTVWVRRRLARLGAQRGTTMNPVLEPLVKTVRATHPKADIRLIERAYDVAAHYHRSQKRKSGDPYITHPLAVATILAELGMQEATIAAGLLHDTVEDTEYTLDQLRSDFGDEIAELVDGVTKLDKVKYGEATQAETVRKMVVAMARDIRVLVIKLCDRLHNMRTLRYLPQAKREKKARETLEIYAPLAHRLGMNTIKWELEDLAFATLYPKRFDEIARLVAERAPRRDVYLQEVIEIVSADLREAKIKATVRGRPKHYYSIYQKMIARNVGFDEIYDLVGIRVIVDSVRDCYAALGIIHARWNPVPGRFKDYIAMPKFNMYQSLHTTVIGPEGSPVELQIRTRAMHRRAEYGIAAHWKYKEERNNGGKAKGASTDMAWLRQLIDWQQETKDPGEFLESLRFDLSVQEVFVFTPRGDVIALPQGATPVDFAYAVHTEVGHRTVGARVNGRLVPLDSELHNGETVEIITAKTDDAGPSRDWLDFVKSARARNKIRQWFTKERREAAIEQGKEAIAKVMRKQELPVQRLFTSESLIALAHDLRYRDLDALYAAVGENQISAHKVVEKLIESVGSLDNNEEDIAEATTPIRVPRKRPTGNPGVVVQGDPDVWVRLSKCCTPVPGDAIIGFVTRGAGVSVHRDDCGNVKHLDPDRLVQVEWQPTGNSMFLVALQIEALDRTRLLSDITRVLSDQHVNILSATVQTTRDRVALSRFTFEMADPAHLGHVLKAVRSVDGVYDVYRVRN”, the protein production result was “failed”. The value for “MRSFILRARSAPTDSQRLLDEIGGKCHTEILAHCMMNSLFTAQSHREDVVIHLVLESTRDYSRTITVEANEISDVGGFHEAALIALLVKALDASVGMGKEQTRVVQPGLTVRTISFEALLGELAEHHSLYMMDKKGDSIRDIKIGPNPCFILTDHIPMPKKSGNSMKRLGVEKISLGPKMLFASQCVTLIHNEIDHQEA” was “not failed”; that for “MRSFLKRTQCAQLRSTPSLIFSTGITHPAETALQRFKFLMYQVVASDLDGTLLSPDHTLSPYAKEPLKLLTARGINFVFATGRHHVDVGQIRDNLEIKSYMITSNGARVHDLDGNLIFAHNLDRDIASDLFGVVNDNPDIITNVYRDDEWFMNRHRPEEMRFFKEAVFKYALYEPGLLEPEGVSKVFFTCDSHEQLLPLEQAINARWGDRVNVSFSTLTCLEVMAGGVSKGHALEAVAKKLGYSLKDCIAFGDGMNDAEMLSMAGKGCIMGSAHQRLKDLHPELEVIGTNADDAVPHYLRKLYLS” was “failed”; that for “MRSISTGRMIDDSSDSVKGSVVWVPAKSIWITTMTVVAVVGGPLTFSWSAVIVFVLSTAITICLGHSVGMHRLLIHRSFSAPLWLEHLLVYLGTLVGMAGPFGMIYAHDIRDWAQRQRDCHDLYAHRRSFFVDALWQMHCAVALDEPPRFVVEERARHDRFYRLLEATWMAQQIPLALLLFSLGGLPWLVWGIAVRISVSLTGHWLVGHFAHRNGHQGWSVDDVAVQGYNLPRFGLVTFGESFHGNHHAFPESARLGIEPGQLDLGWHFIRLLAGLGLASAIKLPHTIVPRDGLRRVEVSGDTGEDHPVGQR” was “failed”. The value for “MRSPYLIGVFLAAGKSRRMGQNKLALPLKGENIGSLSLKTALSSRLDHVLVVERTEHASLEWIGAPYHAPPFQKRWSLHVCQDAEKGQGHSVSSGVRKAESMGADGIVILLADQPQLSVDHLNALVALAPESFAVSSFLGAFTPPIYFSSTCFPYVKGLKGDEGARRLLKSGQLGAGAVLEAKDSGELDDIDTPRGILEHHHHHH” was “not failed”. As to “MRSRDFSSWIWGDALSLLQQADRLHRQLLRTGPAQAPCWEPPVDMIETESAVLIYVALPGVAAGDVAVRFDPDGISISGVRPLPALRNARIHGLEIPYGRFQRRIRLPLHALEPEAPTLADGCLTLTLKKLREAP”, the protein production entry is on record as “failed”.

As for “MRSRPTEGNLLVSIGIPFLNPGPYLDLAVRSVFAQTYLNWELILVDDGSTDGSYERAVAIQDPRVRVLRDGQNKGLPARLNEIVRLAKGELVARMDADDAMHPLRLEKQVGFLQANPELDGVTTGAYLIDAEDRPIALLPGRQPSAQEVLARGGFLHPSLLARKSWFEAHPYSLDYPRAEDRELFVRTFKTSRLHVLSEPLYFYRWFGVPRGKTLRIGYRSERKVMWKYGPNLVGWGPSLRLIALSFGKELLTWFLEWTHLEKGFQTRRAFQPLLEMDQREALRTLKVIRETCVPGWDLEHHHHHH”, the protein production result is “failed”.
